The values below come from the DeepSol protein solubility set.

A short description of this data set: soluble on expression in E. coli; label from the status in PepcDB or PDB records.
For the sequence “GPGSMLNTFMFPGQGSQAKGMGGALFDRFADLTAQADAVLGYSIRALCVDDPRDELGRTQFTQPALYVVNALTYYAKCEDSGETPDFLAGHSLGEFNALLAAGCFDFETGLKLVARRAELMSQARDGAMAAIVNASREQIERTLDEHGLVDTAIANDNTPSQLVISGPAHEIARAEALFQHDRVRYLRLNTSGAFHSKFMRPAQQAFAAHLQSFRLADPAIPVISNVSARPYENGRVSEGLAQQIASPVRWCESIRYLLALAAERGEAIEFTELGHGDVLTRLVHTIRRQTPAPAAAATSARARPTPPGEPERPAQQTAAAPRASDSASASLGAAERVAAWNRDYPVGTRVRSSLIHDDVLETRTPATVLFGHRAAVYMKGYNGYFDLAEVTPA”, the “soluble on expression in E. coli” value is listed as “soluble”. Take “MVCKVCGQKAQVEMRSRGLALCREHYLDWFVKETERAIRRHRMLLPGERVLVAVSGGKDSLALWDVLSRLGYQAVGLHIELGIGEYSKRSLEVTQAFARERGLELLVVDLKEAYGFGVPELARLSGRVACSACGLSKRYIINQVAVEEGFRVVATGHNLDDEAAVLFGNLLNPQEETLSRQGPVLPEKPGLAARVKPFYRFSEREVLSYTLLRGIRYLHEECPNAKGAKSLLYKEALNLVERSMPGAKLRFLEGFLEKIRPRLDVGEEVALKECERCGYPTTGAVCAFCRMWDAVYRRAKKRRLLPEEAVFHPKAPVARG”: the “soluble on expression in E. coli” value is recorded as “soluble”. In the case of “MSLFLQPLLAKKIIAEVKKMYEREVIIVNTDGLIMAGTNDERVGQFHEGALICAKERRSVIITKEDETRLKGVKAGINLPVFFDHDVISVFGLTGEPAEIQPFGELLRKMTELFIKESRHLEQSQWRERMLESFMIDWLQLKEWSPSFLEKAQLLGVDLSSRRQMILIQGYEWSPHDIEQMARSWKSSYPADLFIRWGNERILINHEVPQHEQRDRLLRKILHICSFANTASSQYTAAGAGRAVASSSLTDSYEQAEKALAVSLKRKTPIFEEDLKLDMCLTEISPGTRNEFPQRVLGKALEHQELMNTIRTFFHHDLSLKQTAEDMHIHINTLRYRLAKAEQLTGLRFDRTEDVVTMYVALYFLDQDTKEGGSHHHHHH”, the “soluble on expression in E. coli” value is recorded as “soluble”. The value for “MGSDKIHHHHHHMANVNKTPGKTRRAEVAGGGFAGLTAAIALKQNGWDVRLHEKSSELRAFGAGIYLWHNGLRVLEGLGALDDVLQGSHTPPTYETWMHNKSVSKETFNGLPWRIMTRSHLHDALVNRARALGVDISVNSEAVAADPVGRLTLQTGEVLEADLIVGADGVGSKVRDSIGFKQDRWVSKDGLIRLIVPRMKKELGHGEWDNTIDMWNFWPRVQRILYSPCNENELYLGLMAPAADPRGSSVPIDLEVWVEMFPFLEPCLIEAAKLKTARYDKYETTKLDSWTRGKVALVGDAAHAMCPALAQGAGCAMVNAFSLSQDLEEGSSVEDALVAWETRIRPITDRCQALSGDYAANRSLSKGNMFTPAALEAARYDPLRRVYSWPQ” was “not soluble”; that for “MGSDKIHHHHHHMKPIIIFFSLFLIPLFADDLKSGFGEEYYKLDIDQKRQIFFIKMNEMFDQSFKKIEQERAFIEAFFKDAYKTGFRTSNQINLEKLITIKNKYRIENLYDFAEYKKRIQKIPKSMGIAQALVESATGTSRFAREANNLFGEWTWGEKGLIPDLRHPDKKHKIKIFDSLQDSVDSYVLNLNRHFAYEKFRDARAKFESEGKEITGLEAIKTLDSYSERKGYYINLITKIIKRYNLEKYDTNSNNT” was “not soluble”; that for “MAHHHHHHMTSLHPFEYAFMAGASFSPEERVQLTSSLPLLSVQTKRKNLVLWGKIFGCKADYIIVEAFDDDAVVEPELYHTLDEGRTFSLLGTFSSVFSTCPGYSSCSGLQQAEWKQFMLLGMRGPFFGDPAYEYRVSNHSSSDSAPEIQSVKESVRLALFVEEFDHECRVVPRGAYMKAERQATATIASTTGAEVDAGERAEVRRNTALADFRERRRERCRCGTTTTCVP” was “not soluble”. The value for “MERYGYCIFCDDIRTEAGGKLSFIGCYNSAMFVTNEFPLSLPKLCVHFNVFSPADQPYKSLRVRCYLPGEDKPIAEESIEVPALQDQINLLTSLPKDQPMMPFIVVAASLIFSPCEIKSPGMIHVRAVINDSPTELHLGSLAVSSQATPQVALEHGPAAIN” was “not soluble”. The value for “MGSDKIHHHHHHMLTSGLYQSKNQCCGCELCSCVCPKNLIRMQPDDEGFLYPYIETDEGCVHCNKCIKICPMKSSNRNDIVLKASFGGQTRDIDGTRYSSSGGYATAISKQFILEKGVVVGVRYSSDFSKSEYAIAETIEELEQFRTSKYIQAEKGGIYQTIRNIKRKKILFIGLPCEVSALYNYWGRNTDNLYSISLVCHGPTTPKVQNLFASKLKENNNSQIKYFSVRYKESGWKPYYIYADFENGKHHQELFKGSSYEIAFQYLKRPSCSSCRYKLGDQEFGLVSDLTLGDFHAVEKNMLQYSPWGGVSQASVQSEKGEYLIDLARRQCNVEFIPEKYITKYNYAFHHPVAQKTGRESFKRILLREGLDCAAKSLLVQIPTCYINAKRRIISFLYNVKSYLISK” was “not soluble”; that for “GMGDSAGLPPIYADKPIELAPAKIITSFPVNTFLENLASAPDGTIFVTNHEVGEIVSITPDGNQQIHATVEGKVSGLAFTSNGDLVATGWNADSIPVVSLVKSDGTVETLLTLPDAIFLNGITPLSDTQYLTADSYRGAIWLIDVVQPSGSIWLEHPMLARSNSESVFPAANGLKRFGNFLYVSNTEKMLLLRIPVDSTDKPGEPEIFVEQTNIDDFAFDVEGNLYGATHIYNSVVRIAPDRSTTIIAQAEQGVIGSTAVAFGQTEGDCTAIYVVTNGGMFLPPPTGVVPANVVRLEVGKPGYPLG” was “soluble”. For the sequence “MASMTGGQQMGRGSPNMLRKRQMTVLDLHPGSGKTRKILPQIIKDAIQQRLRTAVLAPTRVVAAEMAEALRGLPVRYQTSAVQREHQGNEIVDVMCHATLTHRLMSPNRVPNYNLFVMDEAHFTDPASIAARGYIATKVELGEAAAIFMTATPPGTTDPFPDSNAPIHDLQDEIPDRAWSSGYEWITEYAGKTVWFVASVKMGNEIAMCLQRAGKKVIQLNRKSYDTEYPKCKNGDWDFVITTDISEMGANFGASRVIDCRKSVKPTILEEGEGRVILGNPSPITSASAAQRRGRVGRNPNQVGDEYHYGGATSEDDSNLAHWTEAKIMLDNIHMPNGLVAQLYGPEREKAFTMDGEYRLRGEEKKNFLELLRTADLPVWLAYKVASNGIQYTDRKWCFDGPRTNAILEDNIEVEIVTRMGERKILKPRWLDARVYADHQALKWFKDFAAGKRHHHHHH”, the “soluble on expression in E. coli” value is given as “soluble”. Turning to “MASISSLGVGSGLDLSSILDSLTAAQKATLTPISNQQSSFTAKLSAYGTLKSALTTFQTANTALSKADLFSATSTTSSTTAFSATTAGNAIAGKYTISVTHLAQAQTLTTRTTRDDTKTAIATSDSKLTIQQGGDKDPISIDISAANSSLSGIRDAINNAKAGVSASIINVGNGEYRLSVTSNDTGLDNAMTLSVSGDDALQSFMGYDASASSNGMEVSVAAQNAQLTVNNVAIENSSNTISDALENITLNLNDVTTGNQTLTITQDTSKAQTAIKDWVNAYNSLIDTFSSLTKYTAVDAGADSQNSSNGALLGDSTLRTIQTQLKSMLSNTVSSSNYKTLAQIGITTDPSDGKLELDADKLTAALKKDASGVGALIVGDGKKTGITTTIGSNLTSWLSTTGIIKAATDGVSKTLNKLTKDYNAASDRIDAQVARYKEQFTQLDVLMTSLNSTSSYLTQQFENNSNSK”, the “soluble on expression in E. coli” value is “not soluble”. Turning to “SPAPPACDLRVLSKLLRDSHVLHSRLSQCPEVHPLPTPVLLPAVDFSLGEWKTQMEETKAQDILGAVTLLLEGVMAARGQLGPTCLSSLLGQLSGQVRLLLGALQSLLGTQLPPRGRTTAHKDPNAIFLSFQHLLRGKVRFLMLVGGSTLCVRRAPPTTAVPS”, the “soluble on expression in E. coli” value is recorded as “soluble”. The value for “MTFTPPEFKILSVNTRNLETIFSTLLGRYKIITDPPVSEAVSSGEIIRNTLETLLARTHKVVICKTDRETARDVFKQLSNELREVLKENNEEKNKQAILFLLGALLHRYFRLIKEYDNFNSYIPYPSFLFSKPPSNVKDCRLFQAIRLALGLPEVMERNYRINDLKILDVTTIVTALETFRDNMQLIVGKDEGKMPRYKSYPHFAADKNFETYLQEIIDEHKRRNPVVLNQFKAINFIQSLVKQIEEEQRQIEEALTHLGKFLPKTCSDFKTISLELMEEQIKAQIESNVLQEKIIDLLYTGHIQENFSTMDCGSFIEAMKNCNSSLARYRALGGYCLLLQNEGVKEQLRFCIHQALGVEINPNELTDKDMLDAIRLLKTYFEANPKVELNFDFFNGKGSMNTFILQTELALAKKVQTVNKAQEDNSETRTTSLFV” was “not soluble”; that for “MAHHHHHHMLAAIQGFGTRVAARTAGQALRRGLGVVPLRRCCPFRCASSASLPSDVEVHQGSDDYRHSDDAFTLSTEVLGTAEEKATLDEDEFDELEAASQELHDLCYALIAHLRCADPEANKALFERRVQRAFREPKPEQYRRLLHGHGDRSLRRRNNYRTRKDFQEAHRLYLQWCDKLLLLLTQPVLDRLVKSAGKGHRDLRTDGVHRYRRPLERATWRSFPHRWFKHAPFEVQQLRADIPESAVLNTRFYRDHATLRYLFTLMEPQHAFREKIERRVMDLTQRYDPLRKSIE” was “not soluble”; that for “SHMAPEDPNEEAVSQIFPDSVMLAVQEGIDLLTFPPAPGSPE” was “soluble”. The value for “MSLKRLTSRRQKGGGCPDLTIRAHHLLCMRGFQGYGYSEEFTENLARIIHEIKGNPSAFLMIVDFPDDICRACPFMDGLRCLRDEERIRSMDRRVLELLKLESGCMVTFHDIEDALLALITSGKIMEICGECSWMDLCLIHREGHHHHHH” was “not soluble”; that for “MGSDKIHHHHHHMSMEAASLDAVSEEQAQSVSILEQAIFATKQTDSSRAEELIRSLTEEALKGTVQWDKNLTVTFNKAITRLDDIISKQLAAIMHNEELQKLEGSWRGLHHTVKNSETNETLKIRVMSLSKKELHKDLSKAVEFDQSQMFKKIYEAEFGTPGGEPYGCLVGDYEFSNHPEDVETLSLISNVAAAGFCPFVSAAGSSLFGFDEWTELSKPRDLEKVFESLEYTQWRSFRDSDDSRFVTLTMPRVLARLPYGEATKPVEEFCYEEFELDLESGRAKVADHDDYCWMNAAYVMATNMGQAFSKYGFCTAIRGAEGGGKVEGLPAHVFTSDDGDPDLKCPTEIGITDRREAELSKLGFLPLCHYKHTDYAVFFGSQSCQKPKIMSNHDATANAAISARLPYLMATSRFAHYLKVMARDKIGSFMEAEDVESWLNRWILSFVNASEGGGQEIRAKYPLADAKVEVKEIPGQPGSYNAVAWLRPWLQMEELTASLRLVAKIPKVG” was “not soluble”; that for “MEKLKEFRGIKEHLGVFREAVKDAERIGFAGVPGVCTPFAQLFAYAVRDKDNIFIPNTDFSKARKLEVTEYGVELGEISPGNVDVLVLLGGLSMPGIGSDIEDVKKLVEDALEEGGELMGLCYMDMFARAGWYELLDFDCVINADIDGYVLRG” was “soluble”. With “MIFFSVALTTLLVGLSNGCFCPPVISPSCGCGGGGYSSYSGGGYGGGYGGGAINGYATFYRDLTPFRQPYYQTASYPQYQQGPAQSLQQMYQLPNPRYIQPQAPRPQYISRPAPRPAPAPYQPPRVQERPYVQPAAPVAELAETRKNTLHDNGYGEEIERTTYTPVVTAAPVYETDAPTIVTQAPAVEEVPDFDETPVKKGEKDEFYYAYYDDKGNKVGDSRSGTTFAPENVIVEEEATVAPAPASIHMDVTTERVEVANENYDDVVEETQVPVRTSLSPSYTPEVVTSSTVLFMEPRVEAKTVAPAAHENTEVVYEDETVEYEDDGHSETSELPSTKKPQSAEFKRTVQDNQILVDAAENTGEGYRRRNAVNGVRIVKRFRHDERKIHSN”, the “soluble on expression in E. coli” value is “not soluble”.
